From patent publication US20150203577A1 (Chugai, published 2015)

T1: mouse FcγRII (mouse, UniProt P08101 30-210)
T1 construct: Extracellular domain with C-terminal His tag; also called mFcγRII; mFcgRII
T1 sequence: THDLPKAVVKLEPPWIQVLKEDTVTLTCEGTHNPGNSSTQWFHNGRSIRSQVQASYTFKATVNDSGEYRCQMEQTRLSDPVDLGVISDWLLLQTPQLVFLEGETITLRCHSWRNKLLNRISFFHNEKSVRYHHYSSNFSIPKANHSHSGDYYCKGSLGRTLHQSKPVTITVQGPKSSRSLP

T2: mouse FcγRIII (mouse, UniProt P08508 31-215)
T2 construct: Extracellular domain with C-terminal His tag; also called mFcγRIII; mFcgRIII
T2 chain: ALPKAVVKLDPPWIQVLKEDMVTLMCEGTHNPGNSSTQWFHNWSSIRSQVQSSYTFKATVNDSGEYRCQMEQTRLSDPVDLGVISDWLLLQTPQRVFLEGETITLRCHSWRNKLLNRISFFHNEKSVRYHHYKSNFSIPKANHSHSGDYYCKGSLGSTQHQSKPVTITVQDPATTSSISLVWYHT


Assays:
[1] = target: T1, mouse FcγRII; assay: SPR (Biacore T200); KD of H237-MB630/MRAL-k0 / KD of variant
[2] = target: T2, mouse FcγRIII; assay: as above
[3] = target: T1, mouse FcγRII; assay: SPR (Biacore T200); KD of H237-mIgG1/MRAL-k0 / KD of variant
[4] = target: T2, mouse FcγRIII; assay: as above

Binder | Relative mFcγRII-binding activity (MB630 = 1) [1] | Relative mFcγRIII-binding activity (MB630 = 1) [2] | relative mFcγRII-binding activity (mIgG1 = 1) [3] | relative mFcγRIII-binding activity (mIgG1 = 1) [4]
MB809 (antibody, mouse IgG1, kappa, CH name; VH H237 + CH, L chain MRAL-k0; copies: 2 + 2) heavy: QVQLQESGPGLVKPSETLSLTCAVSGHSISHDHAWSWVRQPPGEGLEWIGFISYSGITNYNPSLQGRVTISRDNSKNTLYLQMNSLRAEDTAVYYCARSLARTTAMDYWGEGTLVTVSSAKTTPPSVYPLAPGSAAQTNSMVTLGCLVKGYFPEPVTVTWNSGSLSSGVHTFPAVLQSDLYTLSSSVTVPSSTWPSETVTCNVAHPASSTKVDKKIVPRDCGCKPCICEPNEVELVFIFPPKPKDVLTITLTPKVTCVVVDISKDDPEVQFSWFVDDVEVHTAQTQPREELFNSTFRSVSELPIMHQDWLNGKEFKCRVNSAAFPAFIEKTISKTKGRPKAPQVYTIPPPKEQMAKDKVSLTCMITDFFPEDITVEWQWNGQPAENYKNTQPIMDTDGSYFVYSKLNVQKSNWEAGNTFTCSVLHEGLHNHHTEKSLSHSPGK light: not shown | 1.44 fold | 1.92 fold | 19 fold | 0.44 fold
MB815 (antibody, mouse IgG1, kappa, CH name; VH H237 + CH, L chain MRAL-k0; copies: 2 + 2) heavy: QVQLQESGPGLVKPSETLSLTCAVSGHSISHDHAWSWVRQPPGEGLEWIGFISYSGITNYNPSLQGRVTISRDNSKNTLYLQMNSLRAEDTAVYYCARSLARTTAMDYWGEGTLVTVSSAKTTPPSVYPLAPGSAAQTNSMVTLGCLVKGYFPEPVTVTWNSGSLSSGVHTFPAVLQSDLYTLSSSVTVPSSTWPSETVTCNVAHPASSTKVDKKIVPRDCGCKPCICEPNEVELVFIFPPKPKDVLTITLTPKVTCVVVDISKDDPEVQFSWFVDDVEVHTAQTQPREEQFNSTFRSVSELPIMHQDWLNGKEFKCRVDSAAFPAPIYKTISKTKGRPKAPQVYTIPPPKEQMAKDKVSLTCMITDFFPEDITVEWQWNGQPAENYKNTQPIMDTDGSYFVYSKLNVQKSNWEAGNTFTCSVLHEGLHNHHTEKSLSHSPGK light: not shown | 1.34 fold | 1.3 fold | 17.6 fold | 0.3 fold
MB813 (antibody, mouse IgG1, kappa, CH name; VH H237 + CH, L chain MRAL-k0; copies: 2 + 2) heavy: QVQLQESGPGLVKPSETLSLTCAVSGHSISHDHAWSWVRQPPGEGLEWIGFISYSGITNYNPSLQGRVTISRDNSKNTLYLQMNSLRAEDTAVYYCARSLARTTAMDYWGEGTLVTVSSAKTTPPSVYPLAPGSAAQTNSMVTLGCLVKGYFPEPVTVTWNSGSLSSGVHTFPAVLQSDLYTLSSSVTVPSSTWPSETVTCNVAHPASSTKVDKKIVPRDCGCKPCICEPNEVELVFIFPPKPKDVLTITLTPKVTCVVVDISKDDPEVQFSWFVDDVEVHTAQTQPREEQFNSTFRSVSELPIMHQDWLNGKEFKCRVDSAAFPAFIEKTISKTKGRPKAPQVYTIPPPKEQMAKDKVSLTCMITDFFPEDITVEWQWNGQPAENYKNTQPIMDTDGSYFVYSKLNVQKSNWEAGNTFTCSVLHEGLHNHHTEKSLSHSPGK light: not shown | 1.24 fold | 1.29 fold | 16.3 fold | 0.3 fold
MB812 (antibody, mouse IgG1, kappa, CH name; VH H237 + CH, L chain MRAL-k0; copies: 2 + 2) heavy: QVQLQESGPGLVKPSETLSLTCAVSGHSISHDHAWSWVRQPPGEGLEWIGFISYSGITNYNPSLQGRVTISRDNSKNTLYLQMNSLRAEDTAVYYCARSLARTTAMDYWGEGTLVTVSSAKTTPPSVYPLAPGSAAQTNSMVTLGCLVKGYFPEPVTVTWNSGSLSSGVHTFPAVLQSDLYTLSSSVTVPSSTWPSETVTCNVAHPASSTKVDKKIVPRDCGCKPCICEPNEVELVFIFPPKPKDVLTITLTPKVTCVVVDISKDDPEVQFSWFVDDVEVHTAQTQPREEQFNSTFRSVSELPIMHQDWLNGKEFKCRVDSAGFPAPIEKTISKTKGRPKAPQVYTIPPPKEQMAKDKVSLTCMITDFFPEDITVEWQWNGQPAENYKNTQPIMDTDGSYFVYSKLNVQKSNWEAGNTFTCSVLHEGLHNHHTEKSLSHSPGK light: not shown | 2.54 fold | 2.93 fold | 33.4 fold | 0.68 fold
MB814 (antibody, mouse IgG1, kappa, CH name; VH H237 + CH, L chain MRAL-k0; copies: 2 + 2) heavy: QVQLQESGPGLVKPSETLSLTCAVSGHSISHDHAWSWVRQPPGEGLEWIGFISYSGITNYNPSLQGRVTISRDNSKNTLYLQMNSLRAEDTAVYYCARSLARTTAMDYWGEGTLVTVSSAKTTPPSVYPLAPGSAAQTNSMVTLGCLVKGYFPEPVTVTWNSGSLSSGVHTFPAVLQSDLYTLSSSVTVPSSTWPSETVTCNVAHPASSTKVDKKIVPRDCGCKPCICEPNEVELVFIFPPKPKDVLTITLTPKVTCVVVDISKDDPEVQFSWFVDDVEVHTAQTQPREEQFNSTFRSVSELPIMHQDWLNGKEFKCRVDSAAFPAYIEKTISKTKGRPKAPQVYTIPPPKEQMAKDKVSLTCMITDFFPEDITVEWQWNGQPAENYKNTQPIMDTDGSYFVYSKLNVQKSNWEAGNTFTCSVLHEGLHNHHTEKSLSHSPGK light: not shown | 1.37 fold | 1.48 fold | 18 fold | 0.34 fold
MB817 (antibody, mouse IgG1, kappa, CH name; VH H237 + CH, L chain MRAL-k0; copies: 2 + 2) heavy: QVQLQESGPGLVKPSETLSLTCAVSGHSISHDHAWSWVRQPPGEGLEWIGFISYSGITNYNPSLQGRVTISRDNSKNTLYLQMNSLRAEDTAVYYCARSLARTTAMDYWGEGTLVTVSSAKTTPPSVYPLAPGSAAQTNSMVTLGCLVKGYFPEPVTVTWNSGSLSSGVHTFPAVLQSDLYTLSSSVTVPSSTWPSETVTCNVAHPASSTKVDKKIVPRDCGCKPCICEPNEVELVFIFPPKPKDVLTITLTPKVTCVVVDISKDDPEVQFSWFVDDVEVHTAQTQPREEQFNSTFRSVSELPIMHQDWLNGKEFKCRVMSAGFPAPIEKTISKTKGRPKAPQVYTIPPPKEQMAKDKVSLTCMITDFFPEDITVEWQWNGQPAENYKNTQPIMDTDGSYFVYSKLNVQKSNWEAGNTFTCSVLHEGLHNHHTEKSLSHSPGK light: not shown | 2.17 fold | 2.27 fold | 28.5 fold | 0.52 fold
MB811 (antibody, mouse IgG1, kappa, CH name; VH H237 + CH, L chain MRAL-k0; copies: 2 + 2) heavy: QVQLQESGPGLVKPSETLSLTCAVSGHSISHDHAWSWVRQPPGEGLEWIGFISYSGITNYNPSLQGRVTISRDNSKNTLYLQMNSLRAEDTAVYYCARSLARTTAMDYWGEGTLVTVSSAKTTPPSVYPLAPGSAAQTNSMVTLGCLVKGYFPEPVTVTWNSGSLSSGVHTFPAVLQSDLYTLSSSVTVPSSTWPSETVTCNVAHPASSTKVDKKIVPRDCGCKPCICEPNEVELVFIFPPKPKDVLTITLTPKVTCVVVDISKDDPEVQFSWFVDDVEVHTAQTQPREELFNSTFRSVSELPIMHQDWLNGKEFKCRVNSAAFPAPIYKTISKTKGRPKAPQVYTIPPPKEQMAKDKVSLTCMITDFFPEDITVEWQWNGQPAENYKNTQPIMDTDGSYFVYSKLNVQKSNWEAGNTFTCSVLHEGLHNHHTEKSLSHSPGK light: not shown | 1.69 fold | 1.87 fold | 22.2 fold | 0.43 fold
MB816 (antibody, mouse IgG1, kappa, CH name; VH H237 + CH, L chain MRAL-k0; copies: 2 + 2) heavy: QVQLQESGPGLVKPSETLSLTCAVSGHSISHDHAWSWVRQPPGEGLEWIGFISYSGITNYNPSLQGRVTISRDNSKNTLYLQMNSLRAEDTAVYYCARSLARTTAMDYWGEGTLVTVSSAKTTPPSVYPLAPGSAAQTNSMVTLGCLVKGYFPEPVTVTWNSGSLSSGVHTFPAVLQSDLYTLSSSVTVPSSTWPSETVTCNVAHPASSTKVDKKIVPRDCGCKPCICEPNEVELVFIFPPKPKDVLTITLTPKVTCVVVDISKDDPEVQFSWFVDDVEVHTAQTQPREEQFNSTFRSVSELPIMHQDWLNGKEFKCRVMSDAFPAPIEKTISKTKGRPKAPQVYTIPPPKEQMAKDKVSLTCMITDFFPEDITVEWQWNGQPAENYKNTQPIMDTDGSYFVYSKLNVQKSNWEAGNTFTCSVLHEGLHNHHTEKSLSHSPGK light: not shown | 2.31 fold | 2.84 fold | 30.4 fold | 0.65 fold
MB810 (antibody, mouse IgG1, kappa, CH name; VH H237 + CH, L chain MRAL-k0; copies: 2 + 2) heavy: QVQLQESGPGLVKPSETLSLTCAVSGHSISHDHAWSWVRQPPGEGLEWIGFISYSGITNYNPSLQGRVTISRDNSKNTLYLQMNSLRAEDTAVYYCARSLARTTAMDYWGEGTLVTVSSAKTTPPSVYPLAPGSAAQTNSMVTLGCLVKGYFPEPVTVTWNSGSLSSGVHTFPAVLQSDLYTLSSSVTVPSSTWPSETVTCNVAHPASSTKVDKKIVPRDCGCKPCICEPNEVELVFIFPPKPKDVLTITLTPKVTCVVVDISKDDPEVQFSWFVDDVEVHTAQTQPREELFNSTFRSVSELPIMHQDWLNGKEFKCRVNSAAFPAYIEKTISKTKGRPKAPQVYTIPPPKEQMAKDKVSLTCMITDFFPEDITVEWQWNGQPAENYKNTQPIMDTDGSYFVYSKLNVQKSNWEAGNTFTCSVLHEGLHNHHTEKSLSHSPGK light: not shown | 1.58 fold | 2.24 fold | 20.8 fold | 0.52 fold
